Reference: paper PMC8326117 (International Journal of Biological Sciences, 2021)

Target: SARS-CoV-2 S-protein RBD (SARS-CoV-2, UniProt P0DTC2)
Test: SPR
Conditions: both partners purified

B1: S-protein neutralizing peptide AYn1 (peptide)
peptide: KKKKKKDKFNHEAEDLFY
notes: also called 6K-modified AYn1 peptide
In the case of B1, the Kd is reported as 95.6 nM.
